# Data from IntAct's records for PubMed 21245303.
# B1: Segment polarity protein dishevelled homolog DVL-2 (Homo sapiens), O14641 (parent)
# chain: MAGSSTGGGGVGETKVIYHLDEEETPYLVKIPVPAERITLGDFKSVLQRPAGAKYFFKSMDQDFGVVKEEISDDNARLPCFNGRVVSWLVSSDNPQPEMAPPVHEPRAELAPPAPPLPPLPPERTSGIGDSRPPSFHPNVSSSHENLEPETETESVVSLRRERPRRRDSSEHGAGGHRTGGPSRLERHLAGYESSSTLMTSELESTSLGDSDEEDTMSRFSSSTEQSSASRLLKRHRRRRKQRPPRLERTSSFSSVTDSTMSLNIITVTLNMEKYNFLGISIVGQSNERGDGGIYIGSIMKGGAVAADGRIEPGDMLLQVNDMNFENMSNDDAVRVLRDIVHKPGPIVLTVAKCWDPSPQAYFTLPRNEPIQPIDPAAWVSHSAALTGTFPAYPGSSSMSTITSGSSLPDGCEGRGLSVHTDMASVTKAMAAPESGLEVRDRMWLKITIPNAFLGSDVVDWLYHHVEGFPERREARKYASGLLKAGLIRHTVNKITFSEQCYYVFGDLSGGCESYLVNLSLNDNDGSSGASDQDTLAPLPGATPWPLLPTFSYQYPAPHPYSPQPPPYHELSSYTYGGGSASSQHSEGSRSSGSTRSDGGAGRTGRPEERAPESKSGSGSESEPSSRGGSLRRGGEASGTSDGGPPPSRGSTGGAPNLRAHPGLHPYGPPPGMALPYNPMMVVMMPPPPPPVPPAVQPPGAPPVRDLGSVPPELTASRQSFHMAMGNPSEFFVDVM
# Variants of: B1
# Details: with axin1_human AXIN1, O15169
# Chain of axin1_human AXIN1, O15169 (O15169 whole entry): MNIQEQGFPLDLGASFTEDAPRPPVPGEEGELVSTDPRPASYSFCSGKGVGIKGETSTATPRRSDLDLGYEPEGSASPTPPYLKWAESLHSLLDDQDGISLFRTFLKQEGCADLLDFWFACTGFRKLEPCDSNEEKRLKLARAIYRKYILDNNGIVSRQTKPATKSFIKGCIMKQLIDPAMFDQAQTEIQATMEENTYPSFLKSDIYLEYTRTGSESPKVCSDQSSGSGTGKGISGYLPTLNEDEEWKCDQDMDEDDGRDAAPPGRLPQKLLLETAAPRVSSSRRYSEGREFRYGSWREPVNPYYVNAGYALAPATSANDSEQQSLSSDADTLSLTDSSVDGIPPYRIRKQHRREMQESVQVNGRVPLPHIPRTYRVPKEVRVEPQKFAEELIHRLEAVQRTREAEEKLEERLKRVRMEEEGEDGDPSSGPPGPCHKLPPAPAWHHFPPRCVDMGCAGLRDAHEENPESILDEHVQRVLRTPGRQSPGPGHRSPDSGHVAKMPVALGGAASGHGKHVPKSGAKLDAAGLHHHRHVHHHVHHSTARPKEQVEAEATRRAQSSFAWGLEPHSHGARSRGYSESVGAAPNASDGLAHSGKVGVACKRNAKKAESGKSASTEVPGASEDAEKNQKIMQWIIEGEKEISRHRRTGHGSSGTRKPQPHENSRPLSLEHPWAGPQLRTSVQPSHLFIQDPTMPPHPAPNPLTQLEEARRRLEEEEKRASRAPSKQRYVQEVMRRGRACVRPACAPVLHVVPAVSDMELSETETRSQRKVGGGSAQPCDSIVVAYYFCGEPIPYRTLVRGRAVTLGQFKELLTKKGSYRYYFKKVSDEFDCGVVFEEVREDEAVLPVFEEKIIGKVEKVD
row,effect of a mutation on the interaction,Variant
1,disrupting interaction strength,Y27D
